The text below walks through data of FireProtDB (doi:10.1021/bi981698k).

For this data set the following is noted: Saccharomyces cerevisiae (strain ATCC 204508 / S288c), 25 °C, GdnHCl, CD, NaCl 40 mM.
The mark [1] stands for this setting: pH 4, acetate-HCl 20 mM, structure 1YCC.
The mark [2] stands for this setting: pH 5, acetate-HCl 20 mM, structure 1YCC.
Where [3] appears, read: pH 5.8, MES 20 mM, structure 1YCC.
[4] abbreviates: pH 6.12, MES 20 mM, structure 1YCC.
The mark [5] stands for this setting: pH 6.5, MES 20 mM, structure 1YCC.
Where [6] appears, read: pH 7.2, Tris 20 mM, structure 1YCC.
The mark [7] stands for this setting: pH 7.5, Tris 20 mM, structure 1YCC.

Sequence of Cytochrome c isoform 1 wild type, P00044 (P00044 whole entry, canonical isoform): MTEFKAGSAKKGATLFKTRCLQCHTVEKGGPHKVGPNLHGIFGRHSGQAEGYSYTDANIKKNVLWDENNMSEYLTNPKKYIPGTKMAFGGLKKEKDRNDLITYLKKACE
Sequence of Cytochrome c isoform 1 K79H, P00044 (P00044 whole entry K79H, canonical isoform): as the sequence (P00044 whole entry, canonical isoform) above, with K79H counted along it

Take Cytochrome c isoform 1 K79H, P00044: the denaturant m value by setting is: under setting [1], 3.33 kcal/mol/M; under setting [2], 3.67 kcal/mol/M; under setting [3], 3.54 kcal/mol/M; under setting [4], 3.31 kcal/mol/M; under setting [5], 3.14 kcal/mol/M; under setting [6], 2.97 kcal/mol/M. Further, the denaturant m value under setting [7] turned out to be 3.2 kcal/mol/M. Further, the “denaturant midpoint (higher = more stable)” value (shortened to “denaturant midpoint”) by setting is: under setting [1], 0.51 M; under setting [2], 0.98 M; under setting [3], 1.05 M; under setting [4], 1.09 M; under setting [5], 1.12 M; under setting [6], 1.15 M. Also, the “denaturant midpoint” value under setting [7] is 1.15 M. The unfolding free energy runs as follows: under setting [1], 1.71 kcal/mol; under setting [2], 3.6 kcal/mol; under setting [3], 3.7 kcal/mol; under setting [4], 3.6 kcal/mol; under setting [5], 3.52 kcal/mol; under setting [6], 3.41 kcal/mol. Under setting [7], this substance returned an unfolding free energy of 3.68 kcal/mol.

For “Cytochrome c isoform 1 wild type, P00044”, the denaturant m value came to 4.1 kcal/mol/M (pH 4, acetate-HCl 20 mM); 4.28 kcal/mol/M (pH 4.5, acetate-HCl 20 mM); 4.42 kcal/mol/M (pH 5, acetate-HCl 20 mM); 4.84 kcal/mol/M (pH 5.8, MES 20 mM); 4.86 kcal/mol/M (pH 6.12, MES 20 mM); 4.45 kcal/mol/M (pH 6.5, MES 20 mM). Moreover, the denaturant m value was found to be 4.31 kcal/mol/M (pH 7.2, Tris 20 mM) and 4.92 kcal/mol/M (pH 7.5, Tris 20 mM). For the same substance, the “denaturant midpoint” value is, setting by setting: (pH 4, acetate-HCl 20 mM) 0.66 M; (pH 4.5, acetate-HCl 20 mM) 0.96 M; (pH 5, acetate-HCl 20 mM) 1.08 M; (pH 5.8, MES 20 mM) 1.09 M; (pH 6.12, MES 20 mM) 1.16 M; (pH 6.5, MES 20 mM) 1.23 M. Also, the “denaturant midpoint” value was 1.09 M (pH 7.2, Tris 20 mM) and 1.15 M (pH 7.5, Tris 20 mM). Moreover, the unfolding free energy stood at 2.72 kcal/mol (pH 4, acetate-HCl 20 mM); 4.11 kcal/mol (pH 4.5, acetate-HCl 20 mM); 4.77 kcal/mol (pH 5, acetate-HCl 20 mM); 5.28 kcal/mol (pH 5.8, MES 20 mM); 5.66 kcal/mol (pH 6.12, MES 20 mM); 5.44 kcal/mol (pH 6.5, MES 20 mM). The unfolding free energy was determined as 4.68 kcal/mol (pH 7.2, Tris 20 mM) and 5.66 kcal/mol (pH 7.5, Tris 20 mM).
